Drawing on patent US12161669, this text covers Kd, koff and kon for two substances.

Test [1] addresses RhoB GTPase, recombinant (full length RhoB with the C-terminal CKVL motif deleted, six-HIS tag, expressed in E. coli) (UniProt P62745). Kind of test: BLI (BLItz), RhoB immobilised on Ni-NTA biosensor, B30.2 domain in solution, 1:1 fit, no pAg.
Test [2] shares this target. Kind of test: BLI (BLItz), RhoB immobilised on Ni-NTA biosensor, B30.2 domain in solution, 1:1 fit, no pAg; kd(1/Ms) [sic].
Test [3] shares this target. Description: BLI (BLItz), RhoB immobilised on Ni-NTA biosensor, BFI in solution, 1:1 fit, no pAg.
Test [4] shares this target. Kind of test: BLI (BLItz), RhoB immobilised on Ni-NTA biosensor, BFI in solution with the phosphoantigen cHDMAPP at 1:1.
For test [5] the target is unchanged. Description: BLI (BLItz), RhoB immobilised on Ni-NTA biosensor, BFI in solution, 1:1 fit, no pAg; kd(1/Ms) [sic].
The target is the same in test [6]. Description: BLI (BLItz), RhoB immobilised on Ni-NTA biosensor, BFI in solution with the phosphoantigen cHDMAPP at 1:1; kd(1/Ms) [sic].

What is called Kd is the concentration at which binding is half-saturated. One may read the koff as a measure of how fast the partners let go of each other. Usually kon stands for the second-order rate constant of association.

For the substance “BTN3A1 (CD277) B30.2 domain, recombinant (from UniProt O00481 328-513) (receptor)”, in test [1], the dissociation constant Kd is 102 µM and the off-rate (koff) was 0.206 s⁻¹. Moreover, the kon in test [2] turned out to be 2020 M⁻¹ s⁻¹.
Regarding “BTN3A1 (CD277) full-length intracellular domain, recombinant (from UniProt O00481 272-513) (receptor)”, the values for the Kd in test [3] and in test [4] were 19.7 µM and 666 µM, respectively. In addition, the koff was 0.0435 s⁻¹ in test [3] and 0.115 s⁻¹ in test [4]. For the same substance, the association rate constant (kon) was 2200 M⁻¹ s⁻¹ in test [5] and 172 M⁻¹ s⁻¹ in test [6].
